Measurements from patent US20260201022A1.

Biological target: BauA on the surface of the strains of the A. baumannii diversity set (100 strains, MRSN)
Assay: native ELISA on the diversity set of 100 A. baumannii strains

B1: αBauA mouse monoclonal antibody against BauA of Acinetobacter baumannii (hybridoma subclone 12C1) (antibody, V domains shown)
VH: EVQLQESGADLVRPGSSVKISCKASGYAFSNYWMHWMKQRPGQGLEWIGQIYPGDGDTNYNGKFKGKATLTADKSSSSAYMQLSSLISEDSAVYFCARGDFYYGSPFAYWGQGTLVTVSA
VL: DIVMTQAAPSVPVTPGESVSISCRSSKSLLHSNGNTYLYWFLQRPGQSPQLLIYRMSNLASGVPDRFSGSGSGTAFTLRISRVEAEDVGVYYCMQHLEYPLTFGAGTKLELK
Question: How did the percent of strains recognized turn out when B1 was run?
Answer: > 68%
